Two molecules from patent US20030166021A1 (WISTAR INSTITUTE OF ANATOMY AND BIOLOGY, published 2003) can be followed below.

Ends that are not written are not given here.

The target of test [1] is T1, LexA-MB1 fusion protein (human c-Myc Myc box 1 peptide, amino acids 47-62) (human).
T1 construct: also called MB1 bait; lexA-MB1 peptide construct
Description: yeast two hybrid, mating test with LexA baits.

In test [2] the target is T2, small GTP-binding protein RhoB test bait (UniProt P62745 1-196, limits assumed).
T2 construct: Negative control bait in the two hybrid mating test
Description: yeast two hybrid mating test with negative control baits.

Test [3] deals with T3, protein kinase C (PKC) peptide FTRHPPVLTPPDQEVI test bait (rat, also: fused to LexA DNA binding domain (order, linker not given here)).
T3 construct: Negative control bait in the two hybrid mating test; also called peptide derived from rat protein kinase Cβ2
T3 chain: FTRHPPVLTPPDQEVI
Described as above.

For test [4], the target named is transcription factor YY 1 (UniProt P25490 1-414, limits assumed). Description: GST pull-down.
The target in a further test is T4, cell cycle protein p107 (UniProt P28749 1-1068, limits assumed).
T4 sequence (looked up): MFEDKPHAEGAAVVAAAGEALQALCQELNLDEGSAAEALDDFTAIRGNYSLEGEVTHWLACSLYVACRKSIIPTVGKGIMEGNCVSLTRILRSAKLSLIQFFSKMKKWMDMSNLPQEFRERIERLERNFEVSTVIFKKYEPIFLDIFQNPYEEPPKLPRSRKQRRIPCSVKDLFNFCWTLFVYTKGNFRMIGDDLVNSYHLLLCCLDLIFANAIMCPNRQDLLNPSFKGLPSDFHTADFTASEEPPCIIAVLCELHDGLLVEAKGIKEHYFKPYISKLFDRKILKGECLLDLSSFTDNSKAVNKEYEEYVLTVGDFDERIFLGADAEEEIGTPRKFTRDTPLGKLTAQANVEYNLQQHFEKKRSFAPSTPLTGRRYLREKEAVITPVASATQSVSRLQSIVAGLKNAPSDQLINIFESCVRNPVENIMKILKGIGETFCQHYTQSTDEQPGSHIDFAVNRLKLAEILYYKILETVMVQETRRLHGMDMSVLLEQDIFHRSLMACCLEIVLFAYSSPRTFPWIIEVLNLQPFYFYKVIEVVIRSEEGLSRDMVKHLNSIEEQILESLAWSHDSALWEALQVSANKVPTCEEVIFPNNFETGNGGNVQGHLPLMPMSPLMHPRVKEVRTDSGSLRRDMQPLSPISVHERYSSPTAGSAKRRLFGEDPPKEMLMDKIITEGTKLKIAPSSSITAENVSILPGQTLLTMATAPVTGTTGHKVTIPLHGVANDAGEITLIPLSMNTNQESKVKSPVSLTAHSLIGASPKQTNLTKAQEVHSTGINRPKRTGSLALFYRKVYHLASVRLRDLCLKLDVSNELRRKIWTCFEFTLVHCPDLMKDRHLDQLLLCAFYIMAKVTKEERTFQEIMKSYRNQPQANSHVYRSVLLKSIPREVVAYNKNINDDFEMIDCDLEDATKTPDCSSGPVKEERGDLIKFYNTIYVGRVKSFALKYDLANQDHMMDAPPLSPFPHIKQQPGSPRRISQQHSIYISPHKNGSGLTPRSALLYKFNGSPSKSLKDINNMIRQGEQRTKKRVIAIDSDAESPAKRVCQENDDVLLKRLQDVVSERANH
Briefly: GST pull-down.

Test [5] has as its target extracellular protein PAI-1 (UniProt P05121 24-402, limits assumed). Description: GST pull-down.
In test [6] the target is small GTP-binding protein RhoB (tested for GST-ATG99 interaction) (UniProt P62745 1-196, limits assumed). Description: GST pull-down.
For another test, the target named is Max (UniProt P61244 1-160, limits assumed). Description: GST pull-down.
The target in test [7] is T5, c-Myc with both MB1 (49-101) and MB2 (120-140) deletions (human, UniProt P01106 1-48; P01106 102-119; P01106 141-439).
T5 construct: range 1-48; also called CMV Hm subclone containing both deletions
Description: GST pull-down of 35S-labelled IVT protein.

The target of a further test is T6, USF (vector CMV-USF) (UniProt P22415 1-310, limits assumed).
T6 construct: 35S-labelled in vitro translated protein
Description: GST pull-down of 35S-labelled IVT protein.

Test [8] has as its target T7, SV40 large T antigen (vector pTag) (SV40, UniProt P03070 1-708).
T7 construct: 35S-labelled in vitro translated protein
Briefly: GST pull-down of 35S-labelled IVT protein.

T2 sequence (P62745 whole entry): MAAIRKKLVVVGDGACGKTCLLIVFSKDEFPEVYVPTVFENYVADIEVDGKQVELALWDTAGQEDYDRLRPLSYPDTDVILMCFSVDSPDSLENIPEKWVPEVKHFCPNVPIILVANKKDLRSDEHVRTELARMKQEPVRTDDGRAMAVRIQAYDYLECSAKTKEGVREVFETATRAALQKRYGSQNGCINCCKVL
small GTP-binding protein RhoB (tested for GST-ATG99 interaction), sequence (P62745 whole entry): as above
T5 sequence (P01106 other isoform, or with tags, fused parts or gaps limits assumed): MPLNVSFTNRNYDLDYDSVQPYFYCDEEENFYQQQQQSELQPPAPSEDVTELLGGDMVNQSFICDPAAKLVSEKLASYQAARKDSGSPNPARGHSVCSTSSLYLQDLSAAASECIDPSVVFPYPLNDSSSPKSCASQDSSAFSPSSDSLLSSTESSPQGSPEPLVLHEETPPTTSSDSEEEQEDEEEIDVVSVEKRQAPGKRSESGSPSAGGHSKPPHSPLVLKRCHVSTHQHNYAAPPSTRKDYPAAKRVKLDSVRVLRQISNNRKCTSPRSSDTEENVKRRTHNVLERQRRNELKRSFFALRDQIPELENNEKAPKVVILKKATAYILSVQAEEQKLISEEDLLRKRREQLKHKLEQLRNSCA
extracellular protein PAI-1, sequence (P05121 24-402 limits assumed): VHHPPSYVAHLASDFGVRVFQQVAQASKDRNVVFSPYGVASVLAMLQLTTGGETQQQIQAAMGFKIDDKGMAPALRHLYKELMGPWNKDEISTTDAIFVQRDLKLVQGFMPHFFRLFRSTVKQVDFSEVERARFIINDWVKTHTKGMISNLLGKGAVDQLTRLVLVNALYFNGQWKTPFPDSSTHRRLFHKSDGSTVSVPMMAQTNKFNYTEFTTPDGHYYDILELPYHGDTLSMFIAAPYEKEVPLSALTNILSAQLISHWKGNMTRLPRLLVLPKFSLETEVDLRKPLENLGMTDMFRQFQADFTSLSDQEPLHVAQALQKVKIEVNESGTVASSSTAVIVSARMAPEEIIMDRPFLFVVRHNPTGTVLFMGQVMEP
Max, sequence (P61244 whole entry): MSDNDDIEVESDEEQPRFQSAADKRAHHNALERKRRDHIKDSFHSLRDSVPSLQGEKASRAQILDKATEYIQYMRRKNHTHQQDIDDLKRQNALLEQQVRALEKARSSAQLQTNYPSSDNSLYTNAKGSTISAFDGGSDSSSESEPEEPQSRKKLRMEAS
T6 sequence (P22415 whole entry): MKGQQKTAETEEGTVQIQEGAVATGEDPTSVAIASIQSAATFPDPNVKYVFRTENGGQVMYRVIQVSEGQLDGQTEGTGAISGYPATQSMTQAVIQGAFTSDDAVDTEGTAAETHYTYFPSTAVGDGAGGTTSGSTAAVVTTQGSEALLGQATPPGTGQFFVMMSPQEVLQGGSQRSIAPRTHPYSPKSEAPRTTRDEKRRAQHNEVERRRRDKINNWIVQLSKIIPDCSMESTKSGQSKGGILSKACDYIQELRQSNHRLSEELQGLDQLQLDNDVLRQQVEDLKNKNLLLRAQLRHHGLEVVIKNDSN
transcription factor YY 1, sequence (P25490 whole entry): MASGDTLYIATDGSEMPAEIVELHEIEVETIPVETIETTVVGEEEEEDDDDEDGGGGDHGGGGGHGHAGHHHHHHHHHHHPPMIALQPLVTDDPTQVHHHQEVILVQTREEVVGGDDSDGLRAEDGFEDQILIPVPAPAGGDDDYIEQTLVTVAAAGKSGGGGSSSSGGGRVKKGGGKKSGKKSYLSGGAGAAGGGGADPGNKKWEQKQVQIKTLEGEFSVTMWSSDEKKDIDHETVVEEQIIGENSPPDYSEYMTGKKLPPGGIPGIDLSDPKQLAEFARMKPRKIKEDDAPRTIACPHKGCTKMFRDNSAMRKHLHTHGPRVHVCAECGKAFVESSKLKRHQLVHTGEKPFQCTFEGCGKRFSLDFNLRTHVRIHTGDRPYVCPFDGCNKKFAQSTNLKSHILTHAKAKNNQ

B1: murine Bin1 135 amino acid polypeptide (clone #99 ORF) as VP16 fusion from the two hybrid cDNA library (other)
chain: EIRVNHEPEPASGASPGAAIPKSPSQPAEASEVVGGAQEPGETAASEATSSSLPAVVVETFSATVNGAVEGSAGTGRLDLPPGFMFKVQAQHDYTATDTDELQLKAGDVVLVIPFQNPEEQDEGWLMGVKESD
notes: Prey of the yeast two hybrid screen
With B1, the results for the binding result in test [1], in [2] and in [3] were “binds”, “no binding” and “no binding”, respectively.

B2: GST-ATG99 polypeptide (glutathione-S-transferase fusion of the 135 aa murine Bin1 polypeptide) (other)
chain: EIRVNHEPEPASGASPGAAIPKSPSQPAEASEVVGGAQEPGETAASEATSSSLPAVVVETFSATVNGAVEGSAGTGRLDLPPGFMFKVQAQHDYTATDTDELQLKAGDVVLVIPFQNPEEQDEGWLMGVKESD
notes: Expressed in E. coli, purified on glutathione-Sepharose; not shown: glutathione-S-transferase of vector pGEX-2T (Pharmacia); 15 amino acid N-terminal extension with initiator methionine (3 amino acids from E47 and 12 amino acids from VP16); lett
As for B2, the binding result (in test [4]; with cell cycle protein p107; in test [5]; in test [6]; with Max; in [7]) was “no binding” each time. Further, the binding result (with USF (vector CMV-USF); in test [8]) was “no binding” throughout.
